Results: patent US20220324953A1 (JIANGSU HENGRUI MEDICINE, published 2022)

T1: Mouse CTGF protein-His tag (mouse, UniProt P29268 26-348)
T1 construct: C-terminal His tag; also called mouse CTGF-his protein; mouse CTGF fusion protein
T1 sequence: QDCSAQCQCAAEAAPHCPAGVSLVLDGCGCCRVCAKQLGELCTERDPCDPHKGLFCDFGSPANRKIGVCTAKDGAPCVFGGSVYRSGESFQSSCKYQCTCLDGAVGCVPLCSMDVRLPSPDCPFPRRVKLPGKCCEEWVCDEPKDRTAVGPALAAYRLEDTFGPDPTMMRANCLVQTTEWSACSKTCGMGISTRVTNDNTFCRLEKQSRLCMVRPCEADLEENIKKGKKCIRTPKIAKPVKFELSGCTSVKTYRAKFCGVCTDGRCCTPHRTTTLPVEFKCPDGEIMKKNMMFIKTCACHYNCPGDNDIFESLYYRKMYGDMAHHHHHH


Target: T1, Mouse CTGF protein-His tag
Experiment: ELISA, plate coated with mouse CTGF-his
Experimental: The binding activity of anti-mouse CTGF antibody to mouse CTGF protein was tested by ELISA assay. A 96-well microtiter plate was directly coated with the mouse CTGF fusion protein. The signal strength upon the addition of the antibody was used to determine the binding activity of the antibody to mouse CTGF. The specific experimental procedures were as follows:
The mouse CTGF-his protein was diluted with PBS, pH 7.4 (Shanghai Yuanpei, Cat No. B320) buffer to a concentration of 0.5 μg/ml, added into the 96-well microtiter plate (Corning, Cat No. CLS3590-100EA) at 50 μl/well, and incubated in an incubator at 37° C. for 2 hours. The liquid was removed, 250 μl/well blocking solution (5% skim milk (BD skim milk, Cat No. 232100) diluted in PBS) was added, and incubated in an incubator at 37° C. for 3 hours or at 4° C. overnight (16-18 hours) for blocking. After the blocking was finished, the blocking solution was removed, the plate was washed for 3 times with PBST buffer (PBS containing 0.1% Tween-20, pH 7.4), 50 μl/well of various concentrations of each of the test antibodies (antibodies purified from hybridoma or humanized antibodies) diluted with sample dilution solution were added, and incubated in an incubator at 37° C. for 1 hours. After the incubation was finished, the plate was washed for 3 times with PBST, 50 μl/well of HRP-labeled goat anti-mouse secondary antibody (Jackson Immuno Research, Cat No. 115-035-003) or goat anti-human secondary antibody (Jackson Immuno Research, Cat No. 109-035-003) diluted with sample dilution solution was added, and incubated at 37° C. for 1 hour. The plate was washed for 5 times with PBST, 50 μl/well of TMB chromogenic substrate (KPL, Cat No. 52-00-03) was added, incubated at room temperature for 5-10min, and 50 μl/well of 1 M H₂SO₄ was added to stop the reaction. The absorbance value was read by a microplate reader (Molecular Devices, VERSA max) at a wavelength of 450 nm, and the data was analyzed with GraphPad Prism 5. The binding of CTGF antibody to mouse CTGF protein was calculated as EC50 value.

| Binder | EC50 [nM] |
| --- | --- |
| Hu164-77wl (antibody, human IgG1, lambda, V domains shown) VH: EVQLQESGPGLVKPSQTLSLTCTVSGFSISTFGVHWIRQHPGKGLEWIGVIWRRGGTDYNAAFMSRVTISKDTSKNQVSLKLSSVTAADTAVYYCARDGGFDYWGQGTTVTVSS VL: ETVVTQEPSLTVSPGGTVTLTCRSSIGAVTTSNYANWVQQKPGQAFRGLIGGTSNRAPWTPARFSGSLLGGKAALTLSGVQPEDEAEYYCALWYSTHYVFGGGTKLTVLG | 0.058 |
| Hu164-69wl (antibody, human IgG1, lambda, V domains shown) VH: EVTLKESGPVLVKPTETLTLTCTVSGFSLSTFGVHWIRQPPGKGLEWLGVIWRRGGTDYNAAFMSRLTISKDTSKSQVVFTMTNMDPVDTATYYCARDGGFDYWGQGTTVTVSS VL: ESVVTQPPSVSGAPGQRVTISCRSSIGAVTTSNYANWVQQLPGTAFKGLIGGTSNRAPGVPDRFSGSKSGTSASLAITGLQAEDEADYYCALWYSTHYVFGGGTKLTVLG | 0.059 |
| Hu147-22wk (antibody, human IgG1, kappa, V domains shown) VH: EVQLVESGGGLVQPGGSLRLSCAASGFTFNTYAMNWVRQAPGKGLEWVARIRTKSNNYATYYADSVKDRFTISRDDSKNSLYLQMNSLKTEDTAVYYCVETGFAYWDQGTLVTVSS VL: EIVLTQSPATLSLSPGERATLSCSASSSVSYMHWFQQKPGQSPKLLIYSTSNLASGIPARFSGSGSGTDYTLTISSLEPEDFAVYYCQQRSSYPLTFGQGTKLEIKR | 0.336 |
| Hu147-12wk (antibody, human IgG1, kappa, V domains shown) VH: EVQLVESGGGLVQPGGSLRLSCAASGFTFSTYAMNWVRQAPGKGLEWVGRIRTKSNNYATYYADSVKDRFTISRDDSKNSLYLQMNSLKTEDTAVYYCVETGFAYWDQGTLVTVSS VL: EIVLTQSPATLSLSPGERATLSCSASSSVSYMHWFQQKPGQSPKLLIYSTSNLASGIPARFSGSGSGTDYTLTISSLEPEDFAVYYCQQRSSYPLTFGQGTKLEIKR | 0.249 |
| Hu147-14wk (antibody, human IgG1, kappa, V domains shown) VH: EVQLVESGGGLVQPGGSLRLSCAASGFTFSTYAMNWVRQAPGKGLEWVGRIRTKSNNYATYYADSVKDRFTISRDDSKNSLYLQMNSLKTEDTAVYYCVETGFAYWDQGTLVTVSS VL: DIQMTQSPSSLSASVGDRVTITCSASSSVSYMHWFQQKPGKSPKLLIYSTSNLASGVPSRFSGSGSGTDYTLTISSLQPEDFATYYCQQRSSYPLTFGQGTKLEIKR | 0.431 |
| Hu147-31wk (antibody, human IgG1, kappa, V domains shown) VH: EVQLVESGGGLVQPGGSLRLSCAASGFSFNTYAMNWVRQAPGKGLEWVARIRTKSNNYATYYADSVKDRFTISRDDSESSLYLQMNSLKTEDTAVYYCVETGFAYWDQGTLVTVSS VL: EIVLTQSPATLSLSPGERATLSCSASSSVSYMHWFQQKPGQSPRLLIYSTSNLASGIPARFSGSGSGTDYTLTISSLEPEDFAVYYCQQRSSYPLTFGQGTKLEIKR | 0.32 |
| Hu147-21wk (antibody, human IgG1, kappa, V domains shown) VH: EVQLVESGGGLVQPGGSLRLSCAASGFTFNTYAMNWVRQAPGKGLEWVARIRTKSNNYATYYADSVKDRFTISRDDSKNSLYLQMNSLKTEDTAVYYCVETGFAYWDQGTLVTVSS VL: EIVLTQSPATLSLSPGERATLSCSASSSVSYMHWFQQKPGQSPRLLIYSTSNLASGIPARFSGSGSGTDYTLTISSLEPEDFAVYYCQQRSSYPLTFGQGTKLEIKR | 0.247 |
| Hu147-11wk (antibody, human IgG1, kappa, V domains shown) VH: EVQLVESGGGLVQPGGSLRLSCAASGFTFSTYAMNWVRQAPGKGLEWVGRIRTKSNNYATYYADSVKDRFTISRDDSKNSLYLQMNSLKTEDTAVYYCVETGFAYWDQGTLVTVSS VL: EIVLTQSPATLSLSPGERATLSCSASSSVSYMHWFQQKPGQSPRLLIYSTSNLASGIPARFSGSGSGTDYTLTISSLEPEDFAVYYCQQRSSYPLTFGQGTKLEIKR | 0.228 |
| Hu147-15wk (antibody, human IgG1, kappa, V domains shown) VH: EVQLVESGGGLVQPGGSLRLSCAASGFTFSTYAMNWVRQAPGKGLEWVGRIRTKSNNYATYYADSVKDRFTISRDDSKNSLYLQMNSLKTEDTAVYYCVETGFAYWDQGTLVTVSS VL: DIQLTQSPSSLSASVGDRVTITCSASSSVSYMHWFQQKPGKSPKLWIYSTSNLASGVPSRFSGSGSGTDYTLTISSLQPEDFATYYCQQRSSYPLTFGQGTKLEIKR | 0.159 |
| Hu147-23wk (antibody, human IgG1, kappa, V domains shown) VH: EVQLVESGGGLVQPGGSLRLSCAASGFTFNTYAMNWVRQAPGKGLEWVARIRTKSNNYATYYADSVKDRFTISRDDSKNSLYLQMNSLKTEDTAVYYCVETGFAYWDQGTLVTVSS VL: EIVLTQSPATLSLSPGERATLSCSASSSVSYMHWFQQKPGQSPKLWIYSTSNLASGVPARFSGSGSGTDYTLTISSLEPEDFAVYYCQQRSSYPLTFGQGTKLEIKR | 0.2 |
| Hu147-33wk (antibody, human IgG1, kappa, V domains shown) VH: EVQLVESGGGLVQPGGSLRLSCAASGFSFNTYAMNWVRQAPGKGLEWVARIRTKSNNYATYYADSVKDRFTISRDDSESSLYLQMNSLKTEDTAVYYCVETGFAYWDQGTLVTVSS VL: EIVLTQSPATLSLSPGERATLSCSASSSVSYMHWFQQKPGQSPKLWIYSTSNLASGVPARFSGSGSGTDYTLTISSLEPEDFAVYYCQQRSSYPLTFGQGTKLEIKR | 0.258 |

More lines, in order of falling EC50, values ahead:

| EC50 [nM] | Binder |
| --- | --- |
| 0.664 | Hu147-34wk (antibody, human IgG1, kappa, V domains shown) VH: EVQLVESGGGLVQPGGSLRLSCAASGFSFNTYAMNWVRQAPGKGLEWVARIRTKSNNYATYYADSVKDRFTISRDDSESSLYLQMNSLKTEDTAVYYCVETGFAYWDQGTLVTVSS VL: DIQMTQSPSSLSASVGDRVTITCSASSSVSYMHWFQQKPGKSPKLLIYSTSNLASGVPSRFSGSGSGTDYTLTISSLQPEDFATYYCQQRSSYPLTFGQGTKLEIKR |
| 0.349 | Hu147-32wk (antibody, human IgG1, kappa, V domains shown) VH: EVQLVESGGGLVQPGGSLRLSCAASGFSFNTYAMNWVRQAPGKGLEWVARIRTKSNNYATYYADSVKDRFTISRDDSESSLYLQMNSLKTEDTAVYYCVETGFAYWDQGTLVTVSS VL: EIVLTQSPATLSLSPGERATLSCSASSSVSYMHWFQQKPGQSPKLLIYSTSNLASGIPARFSGSGSGTDYTLTISSLEPEDFAVYYCQQRSSYPLTFGQGTKLEIKR |
| 0.263 | Hu147-24wk (antibody, human IgG1, kappa, V domains shown) VH: EVQLVESGGGLVQPGGSLRLSCAASGFTFNTYAMNWVRQAPGKGLEWVARIRTKSNNYATYYADSVKDRFTISRDDSKNSLYLQMNSLKTEDTAVYYCVETGFAYWDQGTLVTVSS VL: DIQMTQSPSSLSASVGDRVTITCSASSSVSYMHWFQQKPGKSPKLLIYSTSNLASGVPSRFSGSGSGTDYTLTISSLQPEDFATYYCQQRSSYPLTFGQGTKLEIKR |
| 0.127 | Hu147-13wk (antibody, human IgG1, kappa, V domains shown) VH: EVQLVESGGGLVQPGGSLRLSCAASGFTFSTYAMNWVRQAPGKGLEWVGRIRTKSNNYATYYADSVKDRFTISRDDSKNSLYLQMNSLKTEDTAVYYCVETGFAYWDQGTLVTVSS VL: EIVLTQSPATLSLSPGERATLSCSASSSVSYMHWFQQKPGQSPKLWIYSTSNLASGVPARFSGSGSGTDYTLTISSLEPEDFAVYYCQQRSSYPLTFGQGTKLEIKR |
| 0.077 | positive control CTGF antibody mAb1 (antibody, V domains shown, Positive control, from CN1829740B; also called pamrevlumab; FG-3019) VH: EGQLVQSGGGLVHPGGSLRLSCAGSGFTFSSYGMHWVRQAPGKGLEWVSGIGTGGGTYSTDSVKGRFTISRDNAKNSLYLQMNSLRAEDMAVYYCARGDYYGSGSFFDCWGQGTLVTVSS VL: DIQMTQSPSSLSASVGDRVTITCRASQGISSWLAWYQQKPEKAPKSLIYAASSLQSGVPSRFSGSGSGTDFTLTISSLQPEDFATYYCQQYNSYPPTFGQGTKLEIKR |
| 0.067 | Hu164-87wl (antibody, human IgG1, lambda, V domains shown) VH: EVQLQESGPGLVKPSQTLSLTCTVSGFSISTFGVHWIRQHPGKGLEWLGVIWRRGGTDYNAAFMSRLTISKDTSKNQVSFKLSSVTAADTAVYYCARDGGFDYWGQGTTVTVSS VL: ETVVTQEPSLTVSPGGTVTLTCRSSIGAVTTSNYANWVQQKPGQAFRGLIGGTSNRAPWTPARFSGSLLGGKAALTLSGVQPEDEAEYYCALWYSTHYVFGGGTKLTVLG |
| 0.065 | Hu164-68wl (antibody, human IgG1, lambda, V domains shown) VH: EVTLKESGPVLVKPTETLTLTCTVSGFSLSTFGVHWIRQPPGKGLEWLGVIWRRGGTDYNAAFMSRLTISKDTSKSQVVFTMTNMDPVDTATYYCARDGGFDYWGQGTTVTVSS VL: ETVVTQEPSFSVSPGGTVTLTCRSSIGAVTTSNYANWVQQTPGQAFRGLIGGTSNRAPGVPDRFSGSILGNKAALTITGAQADDESDYYCALWYSTHYVFGGGTKLTVLG |
